From publication PMC10306066

Target: Ralstonia solanacearum lectin (Ralstonia solanacearum)
Test: crystal structure

Ralstonia solanacearum lectin (natural protein)
stoichiometry N: 3
